The values below come from paper PMC9382030 (Current biology : CB, 2022).

This test deals with T1, phosphatidylinositol 4-phosphate 5-kinase type-1 gamma (PIP5K1C) (human, UniProt O60331 1-668).
T1 construct: PIP5K1C, human; also called PIPK1 gamma 90; source: Sf9, baculovirus, purified (amylose resin, HRV-3C cleavage, SEC); not shown: His6, N-terminal, cleaved; MBP, N-terminal, cleaved
Description: pull-down; purified GST, GST-Arf6-T27N or GST-Arf6-Q67L bound to GSH agarose as bait; purified PIP5K1C 400 nM as prey, 1 h at 4 °C; 20 mM HEPES, 250 mM NaCl, 0.5 mM TCEP; SDS-PAGE and Coomassie staining. As to conditions: both partners purified.

T1 sequence (O60331 whole entry): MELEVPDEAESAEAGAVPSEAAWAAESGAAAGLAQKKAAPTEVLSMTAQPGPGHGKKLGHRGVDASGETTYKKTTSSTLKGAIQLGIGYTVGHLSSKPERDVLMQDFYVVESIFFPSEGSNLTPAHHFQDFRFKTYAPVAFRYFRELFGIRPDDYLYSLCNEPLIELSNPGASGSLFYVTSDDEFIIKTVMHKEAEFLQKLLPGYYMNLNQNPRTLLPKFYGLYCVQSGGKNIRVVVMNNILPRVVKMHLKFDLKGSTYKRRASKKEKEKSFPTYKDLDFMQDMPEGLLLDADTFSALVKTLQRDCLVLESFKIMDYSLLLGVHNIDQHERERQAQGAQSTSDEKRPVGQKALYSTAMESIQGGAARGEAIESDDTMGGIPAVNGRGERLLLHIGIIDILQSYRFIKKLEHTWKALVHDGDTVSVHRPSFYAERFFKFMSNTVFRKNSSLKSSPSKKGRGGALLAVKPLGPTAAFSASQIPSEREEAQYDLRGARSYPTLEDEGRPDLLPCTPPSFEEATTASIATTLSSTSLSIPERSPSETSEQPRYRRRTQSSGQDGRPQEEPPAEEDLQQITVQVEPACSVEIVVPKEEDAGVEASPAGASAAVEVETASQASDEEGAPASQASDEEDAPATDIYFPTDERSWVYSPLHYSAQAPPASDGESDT

B1: GST-Arf6-Q67L (natural protein, human, UniProt P62330 1-175, looked up)
chain: MGKVLSKIFGNKEMRILMLGLDAAGKTTILYKLKLGQSVTTIPTVGFNVETVTYKNVKFNVWDVGGLDKIRPLWRHYYTGTQGLIFVVDCADRDRIDEARQELHRIINDREMRDAIILIFANKQDLPDAMKPHEIQEKLGLTRIRDRNWYVQPSCATSGDGLYEGLTWLTSNYKS
notes: Arf6, human; pGEX-6P-1 Arf6-Q67L; In the phosphoinositide conversion assay an N-terminal 6xHis form (pOCC3) was used instead; also called constitutively active Arf6; source: E. coli BL21, purified (GSH agarose, SEC); not shown: GST, N-terminal, kept
For B1, the binding result is given as “binds”.
